Measurements taken from patent CN115141281A (dated 2022).

Biological target: T1, 人环氧合酶-2(COX-2) (human, UniProt P35354 18-604, limits assumed)
T1 construct: also called 人COX-2; 重组人COX2
T1 sequence (looked up): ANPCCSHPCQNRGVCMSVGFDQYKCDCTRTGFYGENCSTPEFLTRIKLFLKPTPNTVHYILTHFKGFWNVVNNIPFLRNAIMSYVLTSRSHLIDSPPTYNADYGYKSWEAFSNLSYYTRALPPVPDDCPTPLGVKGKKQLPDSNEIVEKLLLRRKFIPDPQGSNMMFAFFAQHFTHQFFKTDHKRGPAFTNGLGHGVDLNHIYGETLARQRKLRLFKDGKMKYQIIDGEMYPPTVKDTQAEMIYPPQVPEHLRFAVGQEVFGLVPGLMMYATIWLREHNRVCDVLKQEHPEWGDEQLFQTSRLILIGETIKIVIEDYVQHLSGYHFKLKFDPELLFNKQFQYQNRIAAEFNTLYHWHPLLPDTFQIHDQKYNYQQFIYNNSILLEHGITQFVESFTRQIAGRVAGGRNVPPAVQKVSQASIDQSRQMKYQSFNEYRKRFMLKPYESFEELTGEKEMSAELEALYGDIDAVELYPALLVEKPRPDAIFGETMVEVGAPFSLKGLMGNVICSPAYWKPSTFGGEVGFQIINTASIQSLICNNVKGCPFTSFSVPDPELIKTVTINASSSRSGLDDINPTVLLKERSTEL
Assay: BLI, antibody (25 nM) loaded on AHC sensor, two-fold dilutions of human COX-2 in solution

Kd: 0.696 nM
B1: COX-2-HM4E6单克隆抗体 (antibody, V domains shown)
VH: EVQLEESATELARPGASVKLSCKASGYIFSVLMILWIKQRPGQGLEWIGLCKMLIPNFNMRHALFGKATLTADKSSSTAYMQLSSLASEDSAVYYCAGFIDNIWYWGLGTTLAVSS
VL: DIVITQRPALMAASPGEKVTITCQDSGNVYRNEKPWYQQKSGISPKPWIYYATHFTKGVPARFSGSGSGTSYSLTITSMEAEDAATYYCTFGCKHFDHFGAGTKLELK
